Source: patent publication US20200277374A1 (Alector, published 2020)

Experiments:
[1] = molecular target: T1, Histidine-tagged human Siglec-7 (NovoProtein) (human, UniProt Q9Y286 19-357, limits assumed); assay: SPR (BiaCore T200, 25 C), antibody captured on anti-mouse IgG, Siglec-7-His 10 nM, single-concentration kinetics
T1 construct: Bought protein; also called purified Siglec-7-his tagged protein; not shown: histidine tag
Procedure: (§1) SPR data was collected at a rate of 10 Hz at 25′ C on a BiaCore T200 instrument. Data analysis was performed using BiaCore T200 Evaluation Software, version 2.0. HBS-EP+ (100 mM HEPES, 1.5 M NaCl, 30 mM EDTA, 0.5% v/v Surfactant P20, pH 7.4) was used as running buffer and for preparing reagents.
(§2) Mouse-derived antibodies (25 nM) against Siglec-7 were captured (60 s contact time, 30 μL/min flow rate, 0 s stabilization time) on a CM5 sensor chip (GE Healthcare) immobilized with anti-mouse IgG. Histidine-tagged human Siglec-7 (NovoProtein) was then flowed over the captured anti-Siglec-7 surface (120 s contact time, 30 μL/min flow rate, 300 s dissociation time). Concentration of antigen ranged from 5 nM to 100 nM, depending on information obtained from an initial screen. Duplicate single-concentration trials were performed and bracketed by a blank (0 nM antigen) sample. The chip surface was regenerated in between cycles using 10 mM glycine-HCl, pH1.7 (60 s contact time, 30 μL/min flow rate, 60 s stabilization time). The resulting SPR signal was obtained as the difference in response from measurements performed on a blank flow cell.
(§3) Affinity constants (KD) were calculated from the ratio kd/kₐ. For one antibody (clone 1E8), we validated the single-concentration analysis with a multiple-concentration approach (five concentrations of antigen used, plus one blank).

[2] = molecular target: T2, human Siglec-7 expressed on human cells (primary monocytes, dendritic cells, macrophages, NK cells, … (human, UniProt Q9Y286 19-467)); assay: FACS, human primary monocytes, 10 ug/ml mAb
T2 construct: Endogenous receptor on cells; also called Siglec-7 receptor
T2 sequence (Q9Y286 19-467): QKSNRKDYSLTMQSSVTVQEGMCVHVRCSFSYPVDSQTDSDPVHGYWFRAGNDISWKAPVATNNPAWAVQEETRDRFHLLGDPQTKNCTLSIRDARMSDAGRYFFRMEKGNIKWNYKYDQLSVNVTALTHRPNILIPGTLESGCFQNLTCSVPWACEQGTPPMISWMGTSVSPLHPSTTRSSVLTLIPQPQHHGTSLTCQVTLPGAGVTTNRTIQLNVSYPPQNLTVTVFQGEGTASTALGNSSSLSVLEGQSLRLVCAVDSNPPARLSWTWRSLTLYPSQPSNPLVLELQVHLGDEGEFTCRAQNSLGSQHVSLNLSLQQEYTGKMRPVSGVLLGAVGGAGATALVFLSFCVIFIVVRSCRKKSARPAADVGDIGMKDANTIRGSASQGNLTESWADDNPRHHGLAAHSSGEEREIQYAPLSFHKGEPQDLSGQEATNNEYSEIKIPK

[3] = molecular target: T2, human Siglec-7 expressed on human cells …; assay: FACS, human primary dendritic cells, 10 ug/ml mAb
[4] = molecular target: T3, Siglec-7-Fc (plate immobilized) (human, UniProt Q9Y286 19-357, limits assumed); assay: RBC solid adhesion assay, plate-coated Siglec-7-Fc, antibody 0.5 or 1.0 ug/ml; % of RBC binding without antibody
T3 construct: also called Siglec-7-Fc protein; immobilized Siglec-7; not shown: Fc part
T3 sequence (Q9Y286 19-357 limits assumed): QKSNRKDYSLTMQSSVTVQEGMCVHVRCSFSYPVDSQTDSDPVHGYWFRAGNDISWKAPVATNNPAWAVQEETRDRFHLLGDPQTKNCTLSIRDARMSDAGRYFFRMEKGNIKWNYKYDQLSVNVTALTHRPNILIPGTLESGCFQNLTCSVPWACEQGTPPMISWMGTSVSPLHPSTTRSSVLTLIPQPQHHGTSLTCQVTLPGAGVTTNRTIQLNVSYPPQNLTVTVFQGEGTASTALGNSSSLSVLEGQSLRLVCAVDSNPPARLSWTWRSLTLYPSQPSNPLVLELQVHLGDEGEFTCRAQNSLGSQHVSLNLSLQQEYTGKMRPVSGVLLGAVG
In short: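 Plates coated overnight at RT with 5 μg/ml Siglec-7-Fc and blocked in PBS with BSA and 1 mM CaCl₂. Antibody (0.5 or 1.0 μg/ml) bound 1 h at RT, then RBCs (3.0×10⁶ cells/ml) added for 1 h at RT. Bound RBCs lysed and detected by peroxidase at 450 nm, expressed as % of binding without antibody.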

[5] = molecular target: T2, human Siglec-7 expressed on human cells …; assay: cell-based or functional assay
[6] = molecular target: T2, human Siglec-7 expressed on human cells …; assay: FACS, human primary macrophages, 10 ug/ml mAb
[7] = molecular target: T2, human Siglec-7 expressed on human cells …; assay: cell-based or functional assay; remark: listed apart in the source
[8] = molecular target: T1, Histidine-tagged human Siglec-7 …; assay: SPR (BiaCore T200, 25 C), antibody captured on anti-mouse IgG, Siglec-7-His 50 nM, single-concentration kinetics
Procedure: as §1, §2, §3

T1 sequence (Q9Y286 19-357 limits assumed): as above

Kd [1] [pM]	% Positive [2] [%]	MFI [2]	% Positive [3] [%]	MFI [3]	Percent RBC Binding to Siglec-7 [4] [%]	Percent Siglec-7 Surface Expression, DCs [5] [%]	Percent Siglec-7 Surface Expression, Monocytes [5] [%]	Percent Siglec-7 Surface Expression, U937 cells [5] [%]	% Positive [6] [%]	MFI [6]	Percent Siglec-7 Surface Expression, Macrophages [7] [%]	Percent Siglec-7 Surface Expression, NK cells [7] [%]	Kd [8] [pM]	Percent Siglec-7 Surface Expression, Microglia [7] [%]	Binder
600	99.1	523	99.5	897	111	10.5	30.9	83.8	99.7	3280	9.2	74.7	–	–	anti-Siglec-7 antibody 10G8 (antibody, V domains shown, Variable domains assembled from FR and CDR entries) VH: EVKLVEFGGALVKPGGSLKLSCAALGFTFSTYAMFRVRQTPEKREEGVASISSGGRYTYYPDSAKDRHPIFRDNARNTLYLQMSSLRSKDTAMYYCVRHSYGSSYWYLDVWGAGTTVTVSS VL: DIQMTQFPATLSGTPGDRVZLSRRASQSIREYLHWYQQKSHESPRLZIKFASQSICGIPSRFSGSGSGSDFTLSINTVEPEDVGVYYCQKAHNFPYTFGGGTKLEIK
–	99.3	512	99.7	5750	11.6	98.1	29.3	84.6	99.5	15500	14.1	126	400	23	anti-Siglec-7 antibody 2G4 (antibody, V domains shown, Variable domains assembled from FR and CDR entries) VH: QVQLQQSGSELRSPGSSVKLSCKDFDSEVFPITYMNWVRQKPGHGFEWIGDILPSIGRTMYGEKFEDKATLDADTVSNTAYLELNSLTSEDSAIYYCARSEGYLLAYWGQGTLVTVSA VL: DIQMTQSLSYLSVSLGGRVTITCKASDHINNWLAWYQQKPGNAPRLLISGATSLETGFPSRFSGSGSGKDYTLSITSLQTEDVATYYCHQYWNTPYTFGGGTRLEIK
